The series deals with preKARS2 (precursor of human mitochondrial lysyl-tRNA synthetase) (Homo sapiens, UniProt Q15046-2 Q15046-2:1-625). Nature of the series: EMSA; 10 mM MgCl2, 30 C. Particulars: tags: C-terminal 6xHis, thrombin site and N-terminal 6xHis deleted, label: 5'-32P. The method, then:
Purified RNA was dephosphorylated with alkaline phosphatase (Boehringer Mannheim) and labeled at the 59-end with c-32P-ATP using T4 polynucleotide kinase (Promega). The labeled RNA was denatured at 100° C. and then slowly cooled down to the room temperature. For RNA binding assays, the appropriate amount of protein and labeled RNA were mixed in […] of the buffer containing 20 mM Tris-HCl pH 7.5, 150 mM NaCl, 10 mM MgCl2, 5 mM DTT, 10% glycerol, 0.1 mg/ml BSA and incubated at 30° C. for 15 min. The mixture was separated by native 8% PAGE in […] buffer (pH 8.3) and 5% glycerol, followed by Typhoon-Trio (GE Healthcare) scanning and quantification as described in.

The source of these data is US20150361450, “VECTOR FOR THERAPY OF MITOCHONDRIAL DISEASE” (UNIVERSITE DE STRASBOURG, published 2015).

Sequence of preKARS2 (precursor of human mitochondrial lysyl-tRNA synthetase) (Q15046 other isoform, or with tags, fused parts or gaps): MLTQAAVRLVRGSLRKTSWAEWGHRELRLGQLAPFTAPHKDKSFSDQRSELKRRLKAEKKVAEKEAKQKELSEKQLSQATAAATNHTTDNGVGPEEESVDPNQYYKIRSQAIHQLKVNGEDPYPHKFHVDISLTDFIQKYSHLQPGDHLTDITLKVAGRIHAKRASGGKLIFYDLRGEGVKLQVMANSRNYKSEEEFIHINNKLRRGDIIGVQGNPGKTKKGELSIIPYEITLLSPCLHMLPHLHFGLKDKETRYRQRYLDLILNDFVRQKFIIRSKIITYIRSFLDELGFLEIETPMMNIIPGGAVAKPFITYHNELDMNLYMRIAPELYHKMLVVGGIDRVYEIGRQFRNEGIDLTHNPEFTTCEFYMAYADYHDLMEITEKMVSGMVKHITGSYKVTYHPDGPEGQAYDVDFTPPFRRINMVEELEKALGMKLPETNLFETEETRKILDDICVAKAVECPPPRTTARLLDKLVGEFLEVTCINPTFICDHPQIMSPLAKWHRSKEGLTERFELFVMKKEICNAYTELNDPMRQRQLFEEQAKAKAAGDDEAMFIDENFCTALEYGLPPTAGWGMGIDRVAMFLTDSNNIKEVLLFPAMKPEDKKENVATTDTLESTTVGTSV

For GCGCAAUCGGUAGCGCCUCUUUACAGUGCUUAGUUCUC (ssRNA) [HD RNA], under “D-arm only, F-hairpin deleted”, the binding result is “no binding”. Consider GGUCUUUACAGUGCUUACUUCUCGAGCCCCCUACAGGGCUCCA (ssRNA) [HF RNA], for which the binding result (F-hairpin only, D-arm deleted) is “no binding”.
